{"source": "paper PMC11133340", "molecular_target": "PSII-ACPII monomer (one PSII core monomer with six ACPII subunits and CCPII-S) (Chroomonas placoidea (endogenous in C. placoidea T11))", "assay": "cryo-EM structure; single-particle cryo-EM of the native PSII-ACPII supercomplex co-purified from C. placoidea thylakoids; 25 mM Hepes-KOH pH 7.5, 1 mM CaCl2, 0.012% α-DDM; C2 symmetry, 2.47 Å overall; local refinement of the peripheral ACPIIs to 2.84 Å", "data": [{"substance": "PSII-ACPII monomer (one PSII core monomer with six ACPII subunits and CCPII-S) (from UniProt A0A222AI37 1-351; A0A222AIE3 1-509; A0A222AI36 1-461; A0A222AI74 1-84; A0A222AI51 1-42; A0A222AIE4 1-67; A0A222AI80 1-38; A0A222AI54 1-39; A0A222AIA0 1-45; A0A222AI58 1-38; A0A222AID2 1-32; A0A222AI61 1-39; A0A222AI96 1-62; A0A222AI35 1-163) (complex)", "values": [{"measurement": "stoichiometry N", "value": 2}]}]}
